Results published in the nanobody polyreactivity screen of Harvey et al. (2022).

Assay: yeast display, Sf9 membrane polyspecificity reagent, FACS + sequencing; frameworks hold sequencing errors
How it was run: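 Galactose-induced (36–48 hours) yeast carrying a synthetic nanobody display library were exposed to 10% biotinylated, detergent-solubilized Sf9 membrane reagent at 4 °C for 1 hour. FACS followed streptavidin microbead enrichment, using low and high (top ~1%) gates for expression (anti-HA) and reagent binding (streptavidin). Colony PCR, MiSeq 2 × 250 sequencing and CDR-length filtering followed. Labels for polyreactivity reflect the gate of origin.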

Sequence	polyreactivity (PSR sort gate)
QVQLVESGGGLVQAGGSLRLSCAASGSNFDAYAIGWYRQAPGKERELVASISIGGSTNYADSVKGRFTISRDNAKNTVYLQMNSLKPEDSAVYYCAAYVYYTYPSGTVYSVSYIYDYWGQGTQVTVSS	low polyreactivity
QVQLVESGGGLVQAGGSLRLSCAASGSNFFSNAMGWYRQAPGKERELVAAITSTGGSTYYADSVKGRFTISRDNAKNTVYLQMNSLKPEVTAVYYCAAASRRGYYYWGQGTQVTVSS	high polyreactivity
QVQLVESGGGLVQAGGSLRLSCAASGSNFFVYAMGWYRQAPGKERELVASIRWRGSSTYYADSVKGRFTISRDNAKNPVYLQMNSLKPEDTAVYDCAATSYNGYGYWGQGTQVTVSS	high polyreactivity
QVQLVESGGGLVQAGGSLRLSCAASGSNFGYNAIGWYRKAPGKEREFVAGISWSGGRTYYADSEKGRFTISRDNAKNTVYLQMNSLKPEDTAVYYCAAPSRPAPRFDYWGQGTQVTVSS	low polyreactivity
QVQLVESGGGLVQAGGSLRLSCAASGSNFHYNAMGWYRQAPGKERELVAAIRWGGGSTFYADSVKGRFTISRDNAKNTVYLQMNSLKPEDTAVYYCAADYWYETRDFTFFDLYVSYEYWGQGTQVTVSS	low polyreactivity
QVQLVESGGGLVQAGGSLRLSCAASGSNFIWYVMGWYRQAPGKEREFVAAINWRGTSTYYADSVKGRFTISRDNAKNTVYLQMNSLKPEDTAVYYCAARVTYRGRAYDYWGQGTQVTVSS	high polyreactivity
QVQLVESGGGLVQAGGSLRLSCAASGSNFKSYAKGWYRQAPGKERELVAAITYRGGSTYYADSVKGRFTISRDNAKNTVSLQMNSLKPEDTAVYYCAADYQSVGGAEYDYWGQGTQVTVSS	high polyreactivity
QVQLVESGGGLVQAGGSLRLSCAASGSNFLFNAMGWYRQAPGKERELVAAINRDDSTYYADSVKGRFTISRDNAKNTVYLQMNSLKPEDTAVYYCARDYRYTIPYDYWGQGTQVNVSS	low polyreactivity
QVQLVESGGGLVQAGGSLRLSCAASGSNFLSYAMGWYRQAPGKERELVAAITGSGGNTYYADSVKGRFTISRDNAKHTVYLQMKSLKPEDTAVYYCSAVATRSNYWRGFYYWGQGTKVTVSS	high polyreactivity
QVQLVESGGGLVQAGGSLRLSCAASGSNFPINAMGWYRQAPGKERELVAAISWRTGSTNYADSVKGRFTISRDNAMNTVYVQMNSLKPEDTAVFYCAASYATTRQRWLDYWGQGTQVTVSS	high polyreactivity
QVQLVESGGGLVQAGGSLRLSCAASGSNFQVNAMGWYRQAPGKERELVASIDSSGGSTYYADSVKGRFTISRDNAKNTVYLQMNSLKPEDTAVFYCAAEYHHYYYYWGEYWGQGTQVTVSS	low polyreactivity
QVQLVESGGGLVQAGGSLRLSCAASGSNFRANAMGWYRQATGKERELVAAISKSGGSTYYADSVKGRFRISRDNAKNTVYLQMNSLKPEDTGVYYCAARTTYLYGMYYWGQGTQVTVSS	low polyreactivity
QVQLVESGGGLVQAGGSLRLSCAASGSNFRYYAMGWYRQAPGTERELVADISSGGSTYYADSVKGRFTISRDNAKNTVYLQMNRLKPEDTAVYYCKADYYAYPWTNDYWGQGTQVTVSS	high polyreactivity
QVQLVESGGGLVQAGGSLRLSCAASGSNFSSYALGWYRQAPGKERELVAAITSGGSTYYADSVKARFTISRDNAKNTVYLQMNSLKPEDTAVYYCNADISRDNDFDYWGQGTQVTVSS	low polyreactivity
QVQLVESGGGLVQAGGSLRLSCAASGSNFSSYAMGWYREAPGKERELVAAIDGSGGSTYADSVKGRFTISRDNAKNTVYLQMNSLKPEDTAVYYCAVDSFLVYSAVRPYDYWGQGTQVTVSS	low polyreactivity
QVQLVESGGGLVQAGGSLRLSCAASGSNFSTYVMGWYRQAPGKERELVATISASDGSTYYADSVKGRFTISRDNAKNTVYLQMNSLKPEDSAVYYCAADTQEYRPTYDYWGQGTQVTVSS	low polyreactivity
QVQLVESGGGLVQAGGSLRLSCAASGSNFSYYDMGWYRQAPGKERELVAAISWNGGTTYYADSVKGRFTISRDNAKNTVYLQMNSLKPEDTAVYYCAATWDFYWAPYDSWGQGTQVTVSS	low polyreactivity
